Earlier results, collected in PMC9569990 (International Journal of Molecular Sciences, 2022).

Legend:
[1] = biological target: S100P (Homo sapiens) (UniProt P25815); settings: cited from earlier work
[2] = biological target: RAGE V domain (Homo sapiens) (UniProt Q15109); settings: cited from earlier work
RAGE V domain (Homo sapiens), sequence (Q15109 23-116): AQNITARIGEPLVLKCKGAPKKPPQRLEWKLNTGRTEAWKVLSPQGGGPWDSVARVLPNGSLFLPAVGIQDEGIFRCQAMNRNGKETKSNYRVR

S100P, sequence (P25815 whole entry): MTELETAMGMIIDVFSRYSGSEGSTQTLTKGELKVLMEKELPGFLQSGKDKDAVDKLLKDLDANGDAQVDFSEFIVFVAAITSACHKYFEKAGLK
S100P (Homo sapiens), sequence (P25815 whole entry): as above

Substance: S100P (from UniProt P25815)
- Kd [1]: 0.064 µM
- Kd [2]: 6 µM
